These results are taken from US7169892B2, “Lipid-peptide-polymer conjugates for long blood circulation and tumor specific drug delivery systems” (Astellas Pharma Inc., priority 2003, dated 2007).

The star is where a group is joined. amidopropyl polyoxyethylene methyl ether = C-terminal amidopropyl PEG methyl ether; Fmoc = O=C(OCC1c2ccccc2-c2ccccc21)*

The target of the test is T1, MMP-2 (Homo sapiens, UniProt P08253).
T1 sequence (P08253 110-660): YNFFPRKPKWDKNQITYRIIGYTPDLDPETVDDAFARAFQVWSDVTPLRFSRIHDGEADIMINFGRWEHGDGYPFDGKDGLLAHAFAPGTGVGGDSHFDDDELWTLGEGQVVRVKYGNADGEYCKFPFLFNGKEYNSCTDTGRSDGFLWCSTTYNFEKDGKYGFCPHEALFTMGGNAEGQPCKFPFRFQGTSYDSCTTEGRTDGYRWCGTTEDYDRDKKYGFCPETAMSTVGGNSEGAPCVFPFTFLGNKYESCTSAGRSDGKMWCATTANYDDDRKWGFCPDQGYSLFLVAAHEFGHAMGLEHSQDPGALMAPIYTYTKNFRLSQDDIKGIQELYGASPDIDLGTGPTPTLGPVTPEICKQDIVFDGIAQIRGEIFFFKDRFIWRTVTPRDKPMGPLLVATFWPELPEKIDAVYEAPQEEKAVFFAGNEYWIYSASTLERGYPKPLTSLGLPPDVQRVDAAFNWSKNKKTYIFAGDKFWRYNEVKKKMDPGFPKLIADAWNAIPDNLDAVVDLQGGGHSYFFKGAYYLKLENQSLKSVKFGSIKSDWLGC
Put plainly: Degradation of Fmoc-GPQGIAGWG-PEG by MMP-2 (gel filtration). Format: biochemical. As to conditions: per unit weight of MMP-2 and unit time, beginning (15 minutes), MMP-2 0.34 μg/ml, 37° C., FIG. 4. How it is done:
After mixing in 0.5 ml of sample in 0.5 ml of acetonitrile, the mixture was filtered and gel filtration was performed.
The effects on degradation by MMP-2 when PEG bonded with Fmoc-GPQGIAGWG (SEQ ID NO:21) were evaluated.
MMP-2 solution was diluted with Tris buffer. […] The final concentration of MMP-2 was 0.34 μg/ml. […] The Fmoc-GPQGIAGWG-PEG (SEQ ID NO:22) in the filtrate was separated and quantitatively determined by gel filtration.
(Size exclusion chromatography separates by hydrodynamic size, large species first.)

As to “9-fluorenylmethyloxycarbonyl (Fmoc)-glycyl-prolyl-glutamyl-glycyl-isoleucyl-alanyl-glycyl -tryptophanyl-glycyl (Fmoc-Gly-Pro-Gln-Gly-Ile-Ala-Gly-Trp-Gly)-amidopropyl polyoxyethylene methyl ether (Fmoc-GPQGIAGWG-{amidopropyl polyoxyethylene methyl ether}) [Fmoc-GPQGIAGWG-PEG]”, the “degradation rate by MMP-2 compared with Fmoc-GPQGIAGWG” value is listed as “virtually the same”.
